The target in assay [1] is '3tag' PCNA^S228I (human) (UniProt P12004). Briefly: SPR; reverse orientation: ~1000 RU biotinylated 3tag-PCNA on an SA chip; GST-PIP fusion as analyte, single cycle kinetics (Cdt1 highest 44.5 μM, p21 highest 27.9 μM); HBS-EP with 1 g/l BSA.
The target in assay [2] is GST-Fen1 PIP box fusion (UniProt P39748). Briefly: SPR; ~1000 RU GST-PIP fusion bound to a CM5 chip (acetate pH 5.5), GST as control lane; His-S-PCNA as analyte, 10 point 2x dilution series from 12 μM; equilibrium of binding, steady state affinity fit; HBS-EP (0.01 M HEPES pH 7.4, 0.15 M NaCl, 3 mM EDTA, 0.0005% IGEPAL) with 1 g/l BSA; Biacore T200. (In general: SPR reads the build-up and loss of mass on a sensor chip optically.)
Chain of UniProt P39748 (P39748 whole entry, the tested form may be a part): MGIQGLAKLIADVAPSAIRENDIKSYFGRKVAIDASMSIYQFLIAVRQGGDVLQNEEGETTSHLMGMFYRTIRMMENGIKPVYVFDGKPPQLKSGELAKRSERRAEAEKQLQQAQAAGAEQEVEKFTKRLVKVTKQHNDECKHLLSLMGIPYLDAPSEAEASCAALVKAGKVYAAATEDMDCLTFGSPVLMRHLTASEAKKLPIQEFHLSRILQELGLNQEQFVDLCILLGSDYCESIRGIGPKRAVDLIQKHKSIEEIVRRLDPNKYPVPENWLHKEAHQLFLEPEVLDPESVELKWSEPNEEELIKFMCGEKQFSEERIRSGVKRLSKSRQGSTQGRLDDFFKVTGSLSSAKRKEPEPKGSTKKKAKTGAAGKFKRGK

Assay [3] concerns the target GST-p21 PIP box fusion (UniProt P38936). The assay is described as above.
Chain of UniProt P38936 (P38936 whole entry, the tested form may be a part): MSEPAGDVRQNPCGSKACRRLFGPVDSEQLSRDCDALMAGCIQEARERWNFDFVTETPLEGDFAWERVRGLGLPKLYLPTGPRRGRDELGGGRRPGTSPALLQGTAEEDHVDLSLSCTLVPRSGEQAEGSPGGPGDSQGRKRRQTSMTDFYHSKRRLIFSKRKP

pKd: −log10 of the molar value.

The term pKd denotes the Kd on a negative log10 scale, so that one unit is a factor of ten.

“GST-p21 PIP box fusion (from UniProt P38936 1-164) (domain or fragment)” registered a reduction of the affinity against PCNA^WT in assay [1] of 10%.

With “His-S-tagged PCNA^S228I (from UniProt P12004 1-258) (natural protein)”, the figures for the pKd in assay [2] and in assay [3] were 4.82 and 5.43, respectively.

Consider “His-S-tagged PCNA^WT (from UniProt P12004 1-261) (natural protein)”, for which the pKd in assay [2] is 5.96; in assay [3], 5.74.

The values above are taken from publication PMC5264654.
